Each block holds one molecule with its values, some of them ahead of it.
Key:
[1] = molecular target: DC-SIGN with its C-terminal 16 amino acids truncated, soluble extracellular segment, Q274C, labeled with Atto-594 (UniProt Q9NNX6); assay: dynamic light scattering; purified lectins in solution; hydrodynamic diameters ~14 nm; identity also checked by HRMS and UV-vis spectroscopy
[2] = molecular target: the molecule itself; assay: as above

stoichiometry N [1]: 4
Molecule: DC-SIGN with its C-terminal 16 amino acids truncated, soluble extracellular segment, Q274C, labeled with Atto-594 (from UniProt Q9NNX6 59-404) (domain or fragment)

B1: DC-SIGN, soluble extracellular segment, Q274C, labeled with Atto-594 (domain or fragment, UniProt Q9NNX6 59-404, looked up)
chain: QVSKVPSSISQEQSRQDAIYQNLTQLKAAVGELSEKSKLQEIYQELTQLKAAVGELPEKSKLQEIYQELTRLKAAVGELPEKSKLQEIYQELTWLKAAVGELPEKSKMQEIYQELTRLKAAVGELPEKSKQQEIYQELTRLKAAVGELPEKSKQQEIYQELTRLKAAVGELPEKSKQQEIYQELTQLKAAVERLCHPCPWEWTFFQGNCYFMSNSCRNWHDSITACKEVGAQLVVIKSAEEQNFLQLQSSRSNRFTWMGLSDLNQEGTWQWVDGSPLLPSFKQYWNRGEPNNVGEEDCAEFSGNGWNDDKCNLAKFWICKKSAASCSRDEEQFLSPAPATPNPPPA
modifications: maleimide-modified Atto-594 dye on the cysteine introduced at Q274 (labeling efficiency ~85% per monomer)
notes: DC-SIGN, soluble extracellular segment; also called dendritic-cell-specific intercellular adhesion molecule-3-grabbing nonintegrin; source: expressed, purified
stoichiometry N [2]: 4

B2: DC-SIGNR, soluble extracellular segment, R287C, labeled with Atto-594 (domain or fragment, UniProt Q9H2X3 71-399, looked up)
chain: QVSKVPSSLSQEQSEQDAIYQNLTQLKAAVGELSEKSKLQEIYQELTQLKAAVGELPEKSKLQEIYQELTRLKAAVGELPEKSKLQEIYQELTRLKAAVGELPEKSKLQEIYQELTRLKAAVGELPEKSKLQEIYQELTELKAAVGELPEKSKLQEIYQELTQLKAAVGELPDQSKQQQIYQELTDLKTAFERLCRHCPKDWTFFQGNCYFMSNSQCNWHDSVTACQEVRAQLVVIKTAEEQNFLQLQTSRSNRFSWMGLSDLNQEGTWQWVDGSPLSPSFQRYWNSGEPNNSGNEDCAEFSGSGWNDNRCDVDNYWICKKPAACFRDE
modifications: maleimide-modified Atto-594 dye on the cysteine introduced at R287 (labeling efficiency ~85% per monomer)
notes: DC-SIGNR, soluble extracellular segment; also called a DC-SIGN related lectin found on endothelial cells; source: expressed, purified
stoichiometry N [2]: 4
